# Values joined by “and” are separate entries in the source; they are usually repeats but may differ in a detail not shown here. Equal values may be shown once.
# Target: human neonatal Fc receptor (FcRn), His-tagged (human) (UniProt P55899)
# Assay: BLI
# Sequence of UniProt P55899 (P55899 24-297, chain 1 of 2): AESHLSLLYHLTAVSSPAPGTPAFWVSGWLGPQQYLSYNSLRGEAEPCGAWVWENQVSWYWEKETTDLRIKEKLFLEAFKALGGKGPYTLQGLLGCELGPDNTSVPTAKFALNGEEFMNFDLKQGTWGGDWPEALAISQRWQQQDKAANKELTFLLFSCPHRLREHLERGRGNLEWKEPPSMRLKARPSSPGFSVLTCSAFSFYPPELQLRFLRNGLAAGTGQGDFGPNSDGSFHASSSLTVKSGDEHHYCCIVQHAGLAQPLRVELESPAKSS
# Sequence of UniProt P55899 (P61769 21-119, chain 2 of 2, further chain): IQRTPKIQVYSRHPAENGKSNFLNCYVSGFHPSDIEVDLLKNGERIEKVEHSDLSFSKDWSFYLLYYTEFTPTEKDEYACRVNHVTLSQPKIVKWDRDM
row,Substance,Kd
1,"RoActemra^® tocilizumab (EU-sourced reference medicinal product, IV and SC) (antibody)",19.2 to 34.5 nM and 17.6 to 35.4 nM
2,"RGB-19 tocilizumab (proposed biosimilar, IV and SC drug products) (antibody)",26.5 to 30.4 nM and 26.3 to 31.7 nM
